The experiment deals with EpCAM (Epithelial Cell Adhesion Molecule) (UniProt P16422). As to the kind of experiment: binding to EpCAM-expressing cells; method not stated.
Sequence of EpCAM (Epithelial Cell Adhesion Molecule) (P16422 24-314 limits assumed): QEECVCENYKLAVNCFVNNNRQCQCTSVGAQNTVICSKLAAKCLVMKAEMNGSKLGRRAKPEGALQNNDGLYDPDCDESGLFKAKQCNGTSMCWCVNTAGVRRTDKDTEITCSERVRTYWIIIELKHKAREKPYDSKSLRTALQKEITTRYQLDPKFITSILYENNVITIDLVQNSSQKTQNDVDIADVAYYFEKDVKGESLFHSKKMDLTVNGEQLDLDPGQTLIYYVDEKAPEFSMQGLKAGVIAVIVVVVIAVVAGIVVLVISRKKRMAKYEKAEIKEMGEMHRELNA

In general, Kd refers to the constant that tells how readily two partners part at equilibrium. A lower Kd goes with a tighter complex. As for HEA125 antibody, the Kd is 2.2 nM.

For the origin of these results see patent US20180044681A1.
